The source of these data is patent publication US20230038638A1, “COMPLEMENT FACTOR I-RELATED COMPOSITIONS AND METHODS” (published 2023).

Where only a bound is given, the exact number is not on record here.

Assay [1] deals with T1, human C4b (human) (UniProt P0C0L4).
T1 sequence: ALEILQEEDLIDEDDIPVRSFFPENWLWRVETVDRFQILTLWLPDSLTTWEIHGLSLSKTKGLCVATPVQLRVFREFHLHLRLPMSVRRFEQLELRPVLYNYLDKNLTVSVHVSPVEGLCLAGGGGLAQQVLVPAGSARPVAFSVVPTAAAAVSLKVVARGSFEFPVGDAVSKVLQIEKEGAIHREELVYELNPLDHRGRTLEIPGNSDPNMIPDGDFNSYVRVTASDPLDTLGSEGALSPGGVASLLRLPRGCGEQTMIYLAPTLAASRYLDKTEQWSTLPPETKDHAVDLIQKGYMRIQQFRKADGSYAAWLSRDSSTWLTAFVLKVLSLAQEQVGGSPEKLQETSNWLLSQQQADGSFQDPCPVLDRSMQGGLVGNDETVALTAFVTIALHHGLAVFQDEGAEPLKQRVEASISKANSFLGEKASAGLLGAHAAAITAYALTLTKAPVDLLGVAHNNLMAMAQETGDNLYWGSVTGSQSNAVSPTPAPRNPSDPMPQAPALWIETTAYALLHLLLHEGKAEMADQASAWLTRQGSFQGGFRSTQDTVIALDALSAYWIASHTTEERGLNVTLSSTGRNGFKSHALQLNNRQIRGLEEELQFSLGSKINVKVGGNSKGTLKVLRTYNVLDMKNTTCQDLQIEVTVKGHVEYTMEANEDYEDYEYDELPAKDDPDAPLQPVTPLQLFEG

The target in assay [2] is T1, human C4b (human). This is another data set of the same source.
Assay [3] has as its target soluble human C3b (human) (UniProt P01024).
For assay [4], the target named is T2, human C4b (human) (UniProt P0C0L5).
T2 sequence: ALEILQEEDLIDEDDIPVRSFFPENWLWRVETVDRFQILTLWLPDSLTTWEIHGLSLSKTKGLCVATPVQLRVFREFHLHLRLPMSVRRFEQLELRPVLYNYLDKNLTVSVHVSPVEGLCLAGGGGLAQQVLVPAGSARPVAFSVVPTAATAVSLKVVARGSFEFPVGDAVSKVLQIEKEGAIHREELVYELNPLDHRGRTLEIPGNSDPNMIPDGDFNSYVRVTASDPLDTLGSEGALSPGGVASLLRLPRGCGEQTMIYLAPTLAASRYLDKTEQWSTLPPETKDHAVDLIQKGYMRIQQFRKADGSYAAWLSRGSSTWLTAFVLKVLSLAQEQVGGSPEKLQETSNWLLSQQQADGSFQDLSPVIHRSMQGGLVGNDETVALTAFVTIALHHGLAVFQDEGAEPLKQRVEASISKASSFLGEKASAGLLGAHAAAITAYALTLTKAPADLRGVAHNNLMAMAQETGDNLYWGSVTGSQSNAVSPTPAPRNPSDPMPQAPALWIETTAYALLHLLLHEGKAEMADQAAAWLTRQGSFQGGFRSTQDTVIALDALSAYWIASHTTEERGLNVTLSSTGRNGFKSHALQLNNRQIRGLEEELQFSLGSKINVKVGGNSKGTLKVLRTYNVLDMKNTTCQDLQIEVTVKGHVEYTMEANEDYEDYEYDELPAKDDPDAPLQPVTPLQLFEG

In the case of “CFI-HSA variant E457G; E461Q; F464Y (enzyme)”, the C4c EC50 in assay [1] was found to be 40.3 nM. Molecule “CFI-HSA variant E457G; E461Q; F464Y; N531G; GGSSGG (SEQ ID NO: 6); CR1 (ccp15-17) (from UniProt P17927) (enzyme)” yielded a C4c EC50 (nM) in assay [1] of 38.4 nM. As for “CFI-HSA variant E457G; E461Q; R462K (enzyme)”, the C4c EC50 in assay [1] came to 60.2 nM. Consider CFI-HSA variant E457G; E530Y (enzyme), for which the C4c EC50 (nM) in assay [1] amounted to 332 nM. Consider CFI-HSA variant E457G; F464Y (enzyme), for which, in assay [1], the C4c EC50 came out at 82.3 nM. In turn, “CFI-HSA variant E457G; N531G; E461Q; R462K; F464Y; E530Y; GGSSGG (SEQ ID NO: 6); CR1(ccp15-17) (from UniProt P17927) (enzyme)” showed a C4c EC50 (nM) in assay [1] of 86.7 nM.

As to “CFI-HSA variant E457G; N531G; E461Q; R462K; F464Y; GGSSGG (SEQ ID NO: 6); CR1 (ccp1-3) (from UniProt P17927) (enzyme)”, the C4c EC50 (nM) in assay [1] is more than 1000 nM. As to “CFI-HSA variant E457G; P535G; WT; GGSSGG (SEQ ID NO: 6); CR1(ccp15-17) (enzyme)”, the C4c EC50 in assay [1] came out at 57.5 nM. Consider CFI-HSA variant E457G; R462K (enzyme), for which the C4c EC50 in assay [1] was 52.7 nM. As to “CFI-HSA variant E457G; R462K; F464Y (enzyme)”, the C4c EC50 in assay [1] is 84.6 nM. Take CFI-HSA variant E457G; Y408L (enzyme): the C4c EC50 in assay [1] worked out at 108 nM. For the molecule CFI-HSA variant E461Q; F464Y (enzyme), in assay [1], the C4c EC50 came out at 123 nM. The same measure, in the same setting: the figure for CFI-HSA variant E461Q; R462K (enzyme) is 95.9 nM. “CFI-HSA variant E461Q; R462K; F464Y (enzyme)” yielded a C4c EC50 in assay [1] of 159 nM. Regarding CFI-HSA variant F464A (enzyme), in assay [1], the C4c EC50 is more than 1000 nM. CFI-HSA variant F464I (enzyme): the C4c EC50 in assay [1] was more than 1000 nM. On the same count and under the same terms, the figure for CFI-HSA variant F464L (enzyme) is more than 1000 nM; for “CFI-HSA variant K14A; D425R; Y408L-N531G (enzyme)” it is 58.1 nM. Regarding CFI-HSA variant K504E (enzyme), in assay [2], the C4b Screen Ref Fold (fold of reference) is 0.24. Further, in assay [3], the iC3b Screen Ref Fold (fold of reference) is 0.12 and the iC3b Screen Ref Fold (fold vs CFI-HSA wild type) was determined as 0.88. For the same molecule, the C4b Screen Ref Fold (fold vs CFI-HSA wild type) in assay [4] is 0.24.

Molecule CFI-HSA variant K534M (enzyme) came in with a C4c EC50 in assay [1] of 154 nM. Same read-out and setting: in the case of CFI-HSA variant K534N (enzyme) it was 300 nM.

Take “CFI-HSA variant N531G; D425R; E530Y (enzyme)”: the C4c EC50 (nM) in assay [1] is 162 nM.

With “CFI-HSA variant N531G; E457G; R462K; F464Y (enzyme)”, the C4c EC50 in assay [1] came to 33 nM. Same read-out and setting: the figure for “CFI-HSA variant N531G; E461Q; F464Y (enzyme)” is 28.8 nM; for “CFI-HSA variant N531G; E461Q; R462K; F464Y (enzyme)” it is 24 nM. Molecule CFI-HSA variant N531G; E530Y (enzyme) came in with a C4c EC50 (nM) in assay [1] of 38.2 nM. As to CFI-HSA variant N531G; F464Y (enzyme), in assay [1], the C4c EC50 came to 63.5 nM. The same measure, in the same setting: the figure for CFI-HSA variant N531G; R462K (enzyme) is 51.2 nM; for “CFI-HSA variant N531G; R462K; F464Y (enzyme)” it is 54.8 nM. In the case of CFI-HSA variant P384G (enzyme), in assay [2], the C4b Screen Ref Fold (fold of reference) was determined as 0.1. In assay [3], the iC3b Screen Ref Fold (fold of reference) turned out to be 0.01 and the iC3b Screen Ref Fold (fold vs CFI-HSA wild type) turned out to be 0.03. Further, the C4b Screen Ref Fold (fold vs CFI-HSA wild type) in assay [4] was 0.04. In assay [1], “CFI-HSA variant T346K; Y408L; N531G (enzyme)” showed a C4c EC50 of 209 nM. Still for that read-out and setting: the figure for CFI-HSA variant T407G (enzyme) is 329 nM; for CFI-HSA variant T407G; E457G (enzyme) it is 545 nM; for CFI-HSA variant T407G; N531G (enzyme) it is 620 nM. Still for that read-out and setting: the figure for CFI-HSA variant T407G; Y408L (enzyme) is 435 nM; for “CFI-HSA variant T407G; Y408L; E457G (enzyme)” it is 300 nM. In the case of “CFI-HSA variant Y408L; D425R; E530Y (enzyme)”, the C4c EC50 (nM) in assay [1] turned out to be 900 nM. Regarding “CFI-HSA variant Y408L; E457G; E461Q (enzyme)”, in assay [1], the C4c EC50 was determined as 36.1 nM. “CFI-HSA variant Y408L; E457G; E461Q; R462K; N531G; GGSSGG (SEQ ID NO: 6); CR1 (ccp15-17) (from UniProt P17927) (enzyme)”: the C4c EC50 (nM) in assay [1] worked out at 91 nM. The same measure, in the same setting: in the case of “CFI-HSA variant Y408L; E457G; E530Y (enzyme)” it was 26.5 nM. For “CFI-HSA variant Y408L; E457G; F464Y (enzyme)”, the C4c EC50 in assay [1] was found to be 110 nM. In assay [1], “CFI-HSA variant Y408L; E457G; N531G; D425R; E530Y (enzyme)” displayed a C4c EC50 (nM) of 92.9 nM. The same measure, in the same setting: the figure for “CFI-HSA variant Y408L; E457G; N531G; E530Y (enzyme)” is 35.4 nM.

“CFI-HSA variant Y408L; E457G; N531G; WT; GGSSGG (SEQ ID NO: 6); CR1(ccp15-17) (enzyme)” yielded a C4c EC50 in assay [1] of 113 nM.

On to CFI-HSA variant Y408M; E530F (enzyme), for which, in assay [2], the C4b Screen Ref Fold (fold of CFI-HSA wild type) came to 0.11. Besides, the iC3b Screen Ref Fold (fold of CFI-HSA wild type) in assay [3] was 0.95. The like results for “CFI-HSA variant Y408M; E530F; F537K; K504R (enzyme)” were, in that order, 0.05 and 0.01. The like results for “CFI-HSA variant Y408M; F537K; K504R; P558S (enzyme)” were, in that order, 0.07 and 1.26. In the same order, the values of CFI-HSA variant Y408M; K504R (enzyme) are 0.09 and 0.83. With CFI-HSA variant Y408M; P558S (enzyme), the C4b Screen Ref Fold (fold of CFI-HSA wild type) in assay [2] was 0.06. Further, the iC3b Screen Ref Fold (fold of CFI-HSA wild type) in assay [3] amounted to 1.13. The like results for CFI-HSA variant Y408M; S507A (enzyme) were, in that order, -0.02 and -0.04. With CFI-HSA variant Y408S (enzyme), the C4b Screen Ref Fold (fold of reference) in assay [2] was -0.05. Also, the iC3b Screen Ref Fold (fold of reference) in assay [3] was 0.32. Turning to “CFI-HSA-FH_CCP1-4 fusion, Y408L; N531G; E457G; E461Q; R462K; F464Y; GGSSGG (SEQ ID NO: 6); CCP_1-4 (enzyme)”, the C4b Screen Ref Fold (fold of reference) in assay [2] was 1.28. The iC3b Screen Ref Fold (fold of reference) in assay [3] was 0.04. In the same order, the values of “CFI-HSA-FH_CCP1-4 fusion, Y408L; N531G; GGSSGG (SEQ ID NO: 6); CCP_1-4 (enzyme)” are 1.4 and 0.05.

B1: WT mouse CFI; His tag (enzyme)
chain: RSPSASDLPQEELVDQKCLLQKYTHRSCNKVFCQPWQRCIEGTCICKLPYQCPRAGTPVCAMNGRSYPTYCHQKSFECLHPEIKFSHNGTCAAEGKFNVSLIYGRTKTEGLVQVKLVDQDERMFICKNSWSMAEANVACVDLGFPLGVRDIQGSFNISGNLHINDTECLHVHCRGVETSLAECAFTKRRTELSNGLAGVVCYKQDADFPTSLSFQCVNGKHIPQEKACNGVNDCGDQSDELCCKGCRGNASLCKSGVCIPDQYKCNGEVDCITGEDESRCEEDRQQNIPKGLARSAQGEAEIETEETEMLTPGMDNERKRIKSLLPKLSCGVKRNTHTRRKRVIGGKPANVGDYPWQVAIKDGQRITCGGIYIGGCWILTAAHCVRPSRAHSYQVWTALLDWLKPNSQLGIQTVKRVIVHEKYNGATFQNDIALIEMKMHTGKKECELPNSVPACVPWSPYLFQPNDRCIISGWGRGKDNQKVYSLRWGEVDLIGNCSQFYPDRYYEKEMQCAGTRDGSIDACKGDSGGPLVCEDINNVTYVWGIVSWGENCGKPEFPGVYTRVANYFDWISYHVGRSLVSQHNV
B1: the C4b Screen Ref Fold (fold of CFI-HSA wild type) in assay [2] was -0.08. Besides, the iC3b Screen Ref Fold (fold of CFI-HSA wild type) in assay [3] stood at 0.03.
